Test results taken from article PMC10995880 (iScience, 2024).
Substitutions are numbered along the chain they refer to. Names may count otherwise. One block for each binder: values may come before it.

Target: His6-PEX19-WT (1–299 aa), non-farnesylated (human, UniProt P40855 1-299)
Experiment: pull-down; His6-PEX19 pull-down of Flag-PEX3ΔN variants at the same concentrations of PEX19 and PEX3 as in the PEX26^Bpa crosslinking experiments (400 nM)
Settings: both partners purified

Sequence of His6-PEX19-WT (1–299 aa), non-farnesylated (P40855 whole entry, the tested form may be a part): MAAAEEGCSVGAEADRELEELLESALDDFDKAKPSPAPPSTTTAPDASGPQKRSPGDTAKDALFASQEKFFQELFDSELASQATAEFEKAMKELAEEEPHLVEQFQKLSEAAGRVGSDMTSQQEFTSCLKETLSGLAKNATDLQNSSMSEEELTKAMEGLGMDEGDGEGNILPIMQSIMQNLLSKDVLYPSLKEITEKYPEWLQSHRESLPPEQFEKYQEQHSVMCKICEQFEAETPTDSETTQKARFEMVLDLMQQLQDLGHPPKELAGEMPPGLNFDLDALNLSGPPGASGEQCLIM

binding result: binds
B1: Flag-PEX3ΔN-G138E (domain or fragment, UniProt P56589 41-373, looked up)
chain: QEREAAEYIAQARRQYHFESNQRTCNMTVLSMLPTLREALMQQLNSESLTALLKNRPSNKLEIWEDLKIISFTRSTVAVYSTCMLVVLLRVQLNIIGEYIYLDNAAVGKNGTTILAPPDVQQQYLSSIQHLLGDGLTELITVIKQAVQKVLGSVSLKHSLSLLDLEQKLKEIRNLVEQHKSSSWINKDGSKPLLCHYMMPDEETPLAVQACGLSPRDITTIKLLNETRDMLESPDFSTVLNTCLNRGFSRLLDNMAEFFRPTEQDLQHGNSMNSLSSVSLPLAKIIPIVNGQIHSVCSETPSHFVQDLLTMEQVKDFAANVYEAFSTPQQLEK

binding result: binds
B2: Flag-PEX3ΔN-M72K (domain or fragment, UniProt P56589 41-373, looked up)
chain: B1 chain with M32K, E98G
